Experimental data published in patent US12024544B2, “CCN3 and CCN3 peptides and analogs thereof for therapeutic use” (Rosalind Franklin University of Medicine & Science, priority 2010, dated 2024).
“Also recorded” adds a separate entry of the source.

How the values were obtained:
BTBR Ob/Ob mouse = BTBR Ob/Ob mouse as model of liver disease; assay type: in vivo; conditions: 8 weeks of treatment
Protocol: This was carried out using the BTBR Ob/Ob mouse strain that has a defective leptin receptor that results in increased appetite. As a result it rapidly gains weight over the control strain and becomes hyperglycemic at about one month of age, going on to develop renal disease resembling that in humans. This is regarded by some to be the rodent model best mirroring renal disease in humans as a complication of diabetes. Animals were treated with either rCCN3 (SEQ. ID. NO: 67) or CCNp38 (SEQ. ID. NO: 38) beginning at 9 weeks of age, when early renal disease has been documented. The disease was allowed to develop for 9 weeks, then treatment started. Mice were treated 3 times per week for 8 weeks. At 17 weeks, blood and urine were collected, and animals sacrificed with organ samples collected. The effect of treatment with either CCN3 (2 concentrations, 2 or 20× the circulating amounts) or mimic peptide (CCNp38, 2 concentrations, 20 or 200× the equivalent molar circulating concentration of CCN3) was tested. Assays to determine the effect of CCN3 or peptide on expression of target fibrosis genes and clinical pathology were determined using methods as previously described (Riser, Amer J Pathology 2009) and (McIntosh, L M, et al., Selective CCR2-targeted macrophage depletion ameliorates experimental mesangioproliferative glomerulonephritis, Clinical and Experimental Immunology, 2008, 155, 295-303).
Since a common complication of diabetes is fatty liver, hepatitis, NASH, and in some cases liver fibrosis, we used the BTBR Ob/Ob mouse experiments described above as a model of human liver disease to examine the possibility that CCN3 or more particularly CCNp peptides might provide a treatment to prevent, treat, or reverse the liver disease described above.

pro-collagen type 1 = pro-collagen type 1 production by human skin fibroblasts; assay type: cell-based; conditions: TGF-beta, 10 nM, FIG. 21
Description: To test this we used a cell culture model of skin healing/scarring, which employed the use of primary human skin fibroblasts derived from foreskins collected post circumcision. These have been used extensively in the past to grown in culture and treated with agents that are known to drive wound healing and or scarring. We were also interested in a rare form of skin fibrosis/scarring that can lead to systemic disease and death known as nephrogenic systemic fibrosis (NSF). NSF is a complication of NMR diagnostics in renal impaired patients, where gadolinium (GAD), a heavy metal, is used as a contrast agent, but in some cases appears to deposit in skin. Although the mechanism for development of skin fibrosis and subsequent systemic disease is not yet completely understood, we have developed a model that has allowed elucidation of the probable pathway to skin fibrosis (Bhagavathula, N., M. K. Dame, M. DaSilva, W. Jenkins, M. N. Aslam, P. Perone and J. Varani (2010)). “Fibroblast response to gadolinium: role for platelet-derived growth factor receptor.” Invest Radiol 45(12): 769-777). This disease is characterized as a hyperproliferative disease, and in our model it was shown that PDGF produced by resident skin fibroblasts are stimulated by GAD to increase their production of PDGF which acts to induce proliferation and the increased production of MMPs, regulators of ECM breakdown and thus turnover, including the major MMP, MMP-1. At the same time tissue inhibitors of MMPs (TIMPs) are also affected by exposure to GAD. […]
We examined the role of CCN3 and CCNp in fibroproliferative/fibrotic responses in human dermal fibroblasts exposed to Omniscan, one of the gadolinium-based contrast agents associated with development of nephrogenic systemic fibrosis. […] Cellular proliferation was assessed along with MMP-1 (by ELISA and gelatin zymography), TIMP-1 (by ELISA) and COL1 (by ELISA) in the absence and presence of CCN3 and CCNp. […] In parallel, CCN3 production was assessed in control and Omniscan-treated cells. […]

human skin fibroblasts = experiment: human skin fibroblast proliferation; assay type: cell-based
Description: (§1) To test this we used a cell culture model of skin healing/scarring, which employed the use of primary human skin fibroblasts derived from foreskins collected post circumcision. These have been used extensively in the past to grown in culture and treated with agents that are known to drive wound healing and or scarring. We were also interested in a rare form of skin fibrosis/scarring that can lead to systemic disease and death known as nephrogenic systemic fibrosis (NSF). NSF is a complication of NMR diagnostics in renal impaired patients, where gadolinium (GAD), a heavy metal, is used as a contrast agent, but in some cases appears to deposit in skin. Although the mechanism for development of skin fibrosis and subsequent systemic disease is not yet completely understood, we have developed a model that has allowed elucidation of the probable pathway to skin fibrosis (Bhagavathula, N., M. K. Dame, M. DaSilva, W. Jenkins, M. N. Aslam, P. Perone and J. Varani (2010)). “Fibroblast response to gadolinium: role for platelet-derived growth factor receptor.” Invest Radiol 45(12): 769-777). This disease is characterized as a hyperproliferative disease, and in our model it was shown that PDGF produced by resident skin fibroblasts are stimulated by GAD to increase their production of PDGF which acts to induce proliferation and the increased production of MMPs, regulators of ECM breakdown and thus turnover, including the major MMP, MMP-1. At the same time tissue inhibitors of MMPs (TIMPs) are also affected by exposure to GAD. […] It appears that local fibroblasts then respond to this increased TGF-beta by increasing their production of ECM, including predominantly collagen type 1.
(§2) We examined the role of CCN3 and CCNp in fibroproliferative/fibrotic responses in human dermal fibroblasts exposed to Omniscan, one of the gadolinium-based contrast agents associated with development of nephrogenic systemic fibrosis. These studies were carried out as we have previously described (Riser, B. L., N. Bhagavathula, P. Perone, K. Garchow, Y. Xu, G. J. Fisher, F. Najmabadi, D. Attili and J. Varani (2012)). “Gadolinium-induced fibrosis is counter-regulated by CCN3 in human dermal fibroblasts: a model for potential treatment of nephrogenic systemic fibrosis.” J Cell Commun Signal 6(2): 97-105.). In our studies, human dermal fibroblasts were exposed to Omniscan; or to PDGF and TGF-β1 as controls. Cellular proliferation was assessed along with MMP-1 (by ELISA and gelatin zymography), TIMP-1 (by ELISA) and COL1 (by ELISA) in the absence and presence of CCN3 and CCNp. CCN3 and CCNp38 was added to cells at 10 nM concentration and at the same time as PDGF. In parallel, CCN3 production was assessed in control and Omniscan-treated cells. In most case the results shown (each bar) are the mean of 3-5 separate experiments, using fibroblasts from different donors. CCN3 was produced in our laboratory from the human embryonic kidney cell line (HEK-293) transfected with the complete human CCN3 gene, and producing an approximate 55 kDa, full-length CCN3 product. A second source of CCN3 was obtained from Pepro Tech Corporation (Rocky Hill, NJ) and is produced in a prokaryote cell line.
(§3) Next we created and tested for efficacy, additional CCNp including those with the cysteines intact (native sequence) from CCNp37 and CCNp38 and those that were modified by either shortening the peptide by 1 or 2 amino acids or lengthening by one amino acid. These agents were added to human skin fibroblasts in increasing concentrations from 1 nM to 100 nM and compared to the equal concentration of CCN3 (SEQ. ID. NO: 67). They were added just prior to the addition of either TGF-beta or PDGF, depending on the experiment.

MMP-1 = MMP-1 production by human skin fibroblasts; assay type: cell-based
Description: as §1, §2, §3

B1: CCN3: full-length recombinant human CCN3 protein (SEQ. ID. No. 67), commercial (Pepro Tech) or made in HEK-293 (protein)
chain: MQVAATQRCPPQCPGRCPATPPTCAPGVRAVLDGCSCCLVCARQRGESCSDLEPCDESSGLYCDRSADPSNQTGICTAVEGDNCVFDGVIYRSGEKFQPSCKFQCTCRDGQIGCVPRCQLDVLLPEPNCPAPRKVEVPGECCEKWICGPDEEDSLGGLTLAAYRPEATLGVEVSDSSVNCIEQTTEWTACSKSCGMGFSTRVTNRNRQCEMLKQTRLCMVRPCEQEPEQPTDKKGKKCLRTKKSLKAIHLQFKNCTSLHTYKPRFCGVCSDGRCCTPHNTKTIQAEFQCSPGQIVKKPVMVIGTCTCHTNCPKNNEAFLQELELKTTRGKM
effect on increased liver weight (BTBR Ob/Ob mouse; FIG. 41): slightly reduces this increase
effect on increased liver mRNA levels for CCN2 (BTBR Ob/Ob mouse; liver, two doses, FIG. 42): greatly reduces or blocks the increase in a dose-dependent manner
effect on increased liver mRNA levels for Col1A2 (BTBR Ob/Ob mouse; liver, two doses, FIG. 43): dose-dependently reduced, or blocked the increase in collagen expression; also recorded: reduced
block of TGF-beta-induced increase in pro-collagen production (pro-collagen type 1): completely block the increase
inhibition of PDGF-stimulated proliferation, comparison of modifications (human skin fibroblasts; 1 nM to 100 nM, FIGS. 22-24): dose-dependent efficacy
reduction in PDGF-stimulated proliferation (human skin fibroblasts; 1 nM, FIG. 22): slightly decreased proliferation
reduction in PDGF-stimulated proliferation (human skin fibroblasts; 10 nM, FIG. 23): 33%
reduction in PDGF-stimulated proliferation (human skin fibroblasts; 100 nM, FIG. 24): 46%
block of PDGF-stimulated fibroblast proliferation (human skin fibroblasts; PDGF, 10 nM, FIG. 15): this stimulation is blocked
effect on baseline cell growth (human skin fibroblasts; TGF-beta (does not stimulate proliferation), FIG. 16): neither CCN3 (SEQ. ID. No. 67) nor CCNp38-3 (Seq. ID. No. 56) has an effect on baseline cell growth
block of PDGF stimulated MMP-1 production (MMP-1; 1 nM, FIG. 25): able to block little or no MMP-1 production
reduction in PDGF stimulated MMP-1 production (MMP-1; 10 nM, FIG. 26): 27%
reduction in PDGF stimulated MMP-1 production (MMP-1; 100 nM, FIG. 27): 30%
block of PDGF-induced increase in MMP-1 activity (MMP-1; PDGF, 10 nM, FIG. 17): able to block that increase
effect on MMP-1 with TGF-beta (MMP-1; TGF-beta (no stimulating effect), FIG. 18): no effect
